Where “and” joins values, the source holds several entries; their conditions need not be identical. Equal entries are not always repeated. Where two headings read alike, the source gives them in different places.
Legend:
[1] = target: HLA-E*01 on THP1 and U937 cells (human)
[2] = target: HLA-A*02 on THP1 and U937 cells
[3] = target: HLA-E*01 on THP1 and U937 cells (human); assay: mass spectrometry of peptide recovered from immunopurified HLA-E, U937 cells
[4] = target: HLA-E*01 on THP1 and U937 cells (human); assay: mass spectrometry of peptide recovered from immunopurified HLA-E, THP1 cells

| Binder | Peptide quantity (min. copies per cell) (copies per cell) [1] | Peptide quantity (min. copies per cell) (copies per cell) [2] | Peptide quantity (min. copies per cell) (copies per cell) [3] | Peptide quantity (min. copies per cell) (copies per cell) [4] |
| --- | --- | --- | --- | --- |
| VMAPRTLLL (modifications not checked) [peptide … (from the HLA-A*03:01 and HLA-A*31:01 genes)] | 302 |  |  |  |
| VMAPRALLL (modifications not checked) [peptide … (from the HLA-C*07:01 gene)] | 35 | 0 |  |  |
| VMAPRTLIL (modifications not checked) [peptide … (from the HLA-C*03:03 gene in THP1, the HLA-C*01:02 gene in U937)] |  |  | 877 | 70 |
| RLPAKAPLL (modifications not checked) [peptide … from Mycobacterium tuberculosis enoyl-ACP reductase (inhA)] | 52 and 22 |  |  |  |
| VMAPRTLVL (modifications not checked) [peptide … (from the HLA-A*02:01 gene)] |  |  | 586 | 155 |

— patent US20250270327A1
